One block for each binder: values may come before it.
Assays:
human CLL-1 on cells [1] = target: T1, human CLL-1 on cells (human, UniProt Q5QGZ9 1-265); assay: cell-based or functional assay
T1 sequence (looked up): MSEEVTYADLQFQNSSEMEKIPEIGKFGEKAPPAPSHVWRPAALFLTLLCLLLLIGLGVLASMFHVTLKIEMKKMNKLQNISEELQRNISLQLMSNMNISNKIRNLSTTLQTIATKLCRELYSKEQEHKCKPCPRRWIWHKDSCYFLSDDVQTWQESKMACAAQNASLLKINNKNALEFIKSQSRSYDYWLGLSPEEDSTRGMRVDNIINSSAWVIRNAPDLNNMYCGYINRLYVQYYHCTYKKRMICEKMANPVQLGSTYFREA

human CLL-1 on cells [2] = target: T1, human CLL-1 on cells; assay: FACS (PE-anti-human IgG), HL-60 cells
Protocol: (§1) To evaluate the tumor antigen binding property of the bispecific antibody of Example 3, the binding ability of CLL1 targeting portions of 33C2/CD3-R2 and 33C2/CD3-R3 to CLL1 expressed in mammalian cells were analyzed by using FACS.
(§2) Briefly, CLL1 positive cells (U937 and HL60) were incubated with 33C2/CD3-R2 and 33C2/CD3-R3 antibodies. After washing with a FACS buffer (1% BSA in PBS), the PE-anti-human IgG antibodies were added to each well and incubated at 4° C. for 60 min. The MFI (Median Fluorescence Intensity) of PE (phycoerythrin) was evaluated by FACS Calibur. BsAb mock/CD3, which has an anti-CD3 antigen-binding fragment at one arm, and no antigen-binding fragment at another arm, was used as a control group.

human CLL-1 on cells [3] = target: T1, human CLL-1 on cells; assay: FACS (PE-anti-human IgG), U937 cells
Protocol: as §1, §2

human CLL-1 on cells [4] = target: T1, human CLL-1 on cells; assay: cell-based or functional assay; remark: listed apart in the source
human CLL-1 on cells [5] = target: T1, human CLL-1 on cells; assay: cell-based or functional assay; remark: listed apart in the source
human CLL-1 on cells [6] = target: T1, human CLL-1 on cells; assay: cell-based or functional assay; remark: listed apart in the source

CD25 on CD4 T cells, U937 targets, EC50 (human CLL-1 on cells [1]): 1.23 pM
CD25 on CD8 T cells, U937 targets, EC50 (human CLL-1 on cells [1]): 1.1 pM
CD69 on CD4 T cells, U937 targets, EC50 (human CLL-1 on cells [1]): 0.61 pM
CD69 on CD8 T cells, U937 targets, EC50 (human CLL-1 on cells [1]): ~0.5 pM
U937 cell lysis, EC50 (human CLL-1 on cells [1]): 0.15 pM
EC50 (human CLL-1 on cells [2]): 90 pM
EC50 (human CLL-1 on cells [3]): 250 pM
specific lysis of HL-60, PBMC donor ABL06, EC50 (human CLL-1 on cells [4]): 5.07 pM
specific lysis of HL-60, PBMC donor ABL09, EC50 (human CLL-1 on cells [4]): 1.26 pM
specific lysis of HL-60, PBMC donor ABL10, EC50 (human CLL-1 on cells [4]): 0.97 pM
specific lysis of HL-60, PBMC donor ABL15, EC50 (human CLL-1 on cells [4]): 3.04 pM
specific lysis of HL-60, PBMC donor ABL16, EC50 (human CLL-1 on cells [4]): 7.01 pM
specific lysis of HL-60, PBMC donor ABL17, EC50 (human CLL-1 on cells [4]): 16.6 pM
specific lysis of HL-60, PBMC donor ABL18, EC50 (human CLL-1 on cells [4]): 9.43 pM
specific lysis of HL-60, PBMC donor ABL19, EC50 (human CLL-1 on cells [4]): 8.18 pM
specific lysis of U937, PBMC donor ABL06, EC50 (human CLL-1 on cells [4]): 0.57 pM
specific lysis of U937, PBMC donor ABL09, EC50 (human CLL-1 on cells [4]): 0.08 pM
specific lysis of U937, PBMC donor ABL10, EC50 (human CLL-1 on cells [4]): 0.15 pM
specific lysis of U937, PBMC donor ABL15, EC50 (human CLL-1 on cells [4]): 0.04 pM
specific lysis of U937, PBMC donor ABL16, EC50 (human CLL-1 on cells [4]): 0.03 pM
specific lysis of U937, PBMC donor ABL17, EC50 (human CLL-1 on cells [4]): 1.69 pM
specific lysis of U937, PBMC donor ABL18, EC50 (human CLL-1 on cells [4]): 3.05 pM
specific lysis of U937, PBMC donor ABL19, EC50 (human CLL-1 on cells [4]): 0.39 pM
CD25 on CD4 T cells, HL60 targets, EC50 (human CLL-1 on cells [5]): 1.94 pM
CD25 on CD8 T cells, HL60 targets, EC50 (human CLL-1 on cells [5]): 2.09 pM
CD69 on CD4 T cells, HL60 targets, EC50 (human CLL-1 on cells [5]): 0.8 pM
CD69 on CD8 T cells, HL60 targets, EC50 (human CLL-1 on cells [5]): 0.57 pM
U937 cell lysis (so in the source); Table 21 is the HL60 table by paragraph 356), EC50 (human CLL-1 on cells [5]): 0.97 pM
T-cell activation (NFAT reporter effector cells) with HL-60, EC50 (human CLL-1 on cells [6]): 40 pM
T-cell activation (NFAT reporter effector cells) with U937, EC50 (human CLL-1 on cells [6]): 16 pM
B1: 33C2/CD3-R3 (bispecific antibody, human IgG1, kappa, N297A)
heavy 1: not shown
heavy 2: QVQLVQSGAEVKKPGASVKVSCKASGYSFTGYAMNWVRQAPGQRLEWIGLINPYNGGAMYNQKFKGRATLTVDTSASTAYMELSSLRSEDTAVYYCARDYRYEGHLDYWGQGTLVTVSSASTKGPSVFPLAPSSKSTSGGTAALGCLVKDYFPEPVTVSWNSGALTSGVHTFPAVLQSSGLYSLSSVVTVPSSSLGTQTYICNVNHKPSNTKVDKKVEPKSCDKTHTCPPCPAPELLGGPSVFLFPPKPKDTLMISRTPEVTCVVVDVSHEDPEVKFNWYVDGVEVHNAKTKPREEQYASTYRVVSVLTVLHQDWLNGKEYKCKVSNKALPAPIEKTISKAKGQPREPQVCTLPPSREEMTKNQVSLSCAVKGFYPSDIAVEWESNGQPENNYKTTPPVLDSDGSFFLVSKLTVDKSRWQQGNVFSCSVMHEALHNHYTQKSLSLSPGK
light 1: EIVLTQSPATLSLSPGERATLSCSATSSVSYMHWYQQKPGQAPRRWIYDTSKLASGIPARFSGSGSGTSYTLTISSLEPEDFAVYYCQQWSSDSPTFGQGTKLEIKRTVAAPSVFIFPPSDEQLKSGTASVVCLLNNFYPREAKVQWKVDNALQSGNSQESVTEQDSKDSTYSLSSTLTLSKADYEKHKVYACEVTHQGLSSPVTKSFNRGEC
light 2: DIVMTQSPDSLAVSLGERATINCKSSQSLLNSRTRKNYLAWYQQKPGQPPKLLIYWASTRQSGVPDRFSGSGSGTDFTLTISSLQAEDVAVYYCTQSHTLRTFGGGTKVEIKPDIQNPDPAVYQLRDSKSSDKSVCLFTDFDSQTQVSQSKDSDVYITDKCVLDMRSMDFKSNSAVAWSQKSDFACANAFQNSIIPEDTFFPSPESS
notes: As 33C2/CD3-R2 but with the (G4S)3 linker; also called anti-CLL-1/anti-CD3 bispecific antibody with (G4S)3 linker

CD25 on CD4 T cells, U937 targets, EC50 (human CLL-1 on cells [1]): 0.39 pM
CD25 on CD8 T cells, U937 targets, EC50 (human CLL-1 on cells [1]): 0.3 pM
CD69 on CD4 T cells, U937 targets, EC50 (human CLL-1 on cells [1]): 0.21 pM
CD69 on CD8 T cells, U937 targets, EC50 (human CLL-1 on cells [1]): 0.14 pM
U937 cell lysis, EC50 (human CLL-1 on cells [1]): 0.05 pM
EC50 (human CLL-1 on cells [2]): 90 pM
EC50 (human CLL-1 on cells [3]): 230 pM
specific lysis of HL-60, PBMC donor ABL06, EC50 (human CLL-1 on cells [4]): 4.42 pM
specific lysis of HL-60, PBMC donor ABL09, EC50 (human CLL-1 on cells [4]): 1.27 pM
specific lysis of HL-60, PBMC donor ABL10, EC50 (human CLL-1 on cells [4]): 0.86 pM
specific lysis of HL-60, PBMC donor ABL15, EC50 (human CLL-1 on cells [4]): 3.16 pM
specific lysis of HL-60, PBMC donor ABL16, EC50 (human CLL-1 on cells [4]): 5.14 pM
specific lysis of HL-60, PBMC donor ABL17, EC50 (human CLL-1 on cells [4]): 5.85 pM
specific lysis of HL-60, PBMC donor ABL18, EC50 (human CLL-1 on cells [4]): 3.97 pM
specific lysis of HL-60, PBMC donor ABL19, EC50 (human CLL-1 on cells [4]): 9.09 pM
specific lysis of U937, PBMC donor ABL06, EC50 (human CLL-1 on cells [4]): 0.54 pM
specific lysis of U937, PBMC donor ABL09, EC50 (human CLL-1 on cells [4]): 0.13 pM
specific lysis of U937, PBMC donor ABL10, EC50 (human CLL-1 on cells [4]): 0.05 pM
specific lysis of U937, PBMC donor ABL15, EC50 (human CLL-1 on cells [4]): 0.16 pM
specific lysis of U937, PBMC donor ABL16, EC50 (human CLL-1 on cells [4]): 0.05 pM
specific lysis of U937, PBMC donor ABL17, EC50 (human CLL-1 on cells [4]): 1.1 pM
specific lysis of U937, PBMC donor ABL18, EC50 (human CLL-1 on cells [4]): 1.63 pM
specific lysis of U937, PBMC donor ABL19, EC50 (human CLL-1 on cells [4]): 0.32 pM
CD25 on CD4 T cells, HL60 targets, EC50 (human CLL-1 on cells [5]): 1.15 pM
CD25 on CD8 T cells, HL60 targets, EC50 (human CLL-1 on cells [5]): 1.09 pM
CD69 on CD4 T cells, HL60 targets, EC50 (human CLL-1 on cells [5]): 0.54 pM
CD69 on CD8 T cells, HL60 targets, EC50 (human CLL-1 on cells [5]): 0.36 pM
U937 cell lysis (so in the source); Table 21 is the HL60 table by paragraph 356), EC50 (human CLL-1 on cells [5]): 0.86 pM
T-cell activation (NFAT reporter effector cells) with HL-60, EC50 (human CLL-1 on cells [6]): 30 pM
T-cell activation (NFAT reporter effector cells) with U937, EC50 (human CLL-1 on cells [6]): 16 pM
B2: 33C2/CD3-R2 (bispecific antibody, human IgG1, kappa, N297A)
heavy 1: not shown
heavy 2: B1 heavy 2
light 1: B1 light 1
light 2: B1 light 2
notes: WuXiBody format, 2+1: Heavy Chain-1 = CLL1 Fab heavy, linker, CD3 heavy (TCR constant region), Fc knob; Heavy Chain-2 = CLL1 Fab heavy, Fc hole; Two CLL1 light chains follow from the two CLL1 Fab heavy parts; also called anti-CLL-1/anti-CD3 bispecific antibody with (G4S)2 linker

Reference: patent US20250084158A1 (ABL BIO, published 2025)
